T1: cynomolgus monkey SIRPγ on CHO cells (cynomolgus monkey, UniProt Q9P1W8 29-386 (human entry))
T1 construct: also called Cyno SIRPγ CHO
T1 chain: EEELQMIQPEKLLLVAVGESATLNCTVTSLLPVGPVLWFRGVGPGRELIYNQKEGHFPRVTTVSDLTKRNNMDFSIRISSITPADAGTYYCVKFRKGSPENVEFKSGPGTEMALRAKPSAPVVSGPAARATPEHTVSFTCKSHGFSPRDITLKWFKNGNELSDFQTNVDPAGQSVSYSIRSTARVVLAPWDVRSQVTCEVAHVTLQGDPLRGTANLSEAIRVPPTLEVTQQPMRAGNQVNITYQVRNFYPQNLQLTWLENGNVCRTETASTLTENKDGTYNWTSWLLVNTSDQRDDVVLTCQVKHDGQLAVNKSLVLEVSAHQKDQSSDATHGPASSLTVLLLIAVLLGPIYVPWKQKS

T2: cynomolgus monkey SIRPα on CHO cells (cynomolgus monkey, UniProt A0A2K5VYQ9 31-507)
T2 construct: whole, on cells; also called Cyno SIRPα CHO
T2 sequence: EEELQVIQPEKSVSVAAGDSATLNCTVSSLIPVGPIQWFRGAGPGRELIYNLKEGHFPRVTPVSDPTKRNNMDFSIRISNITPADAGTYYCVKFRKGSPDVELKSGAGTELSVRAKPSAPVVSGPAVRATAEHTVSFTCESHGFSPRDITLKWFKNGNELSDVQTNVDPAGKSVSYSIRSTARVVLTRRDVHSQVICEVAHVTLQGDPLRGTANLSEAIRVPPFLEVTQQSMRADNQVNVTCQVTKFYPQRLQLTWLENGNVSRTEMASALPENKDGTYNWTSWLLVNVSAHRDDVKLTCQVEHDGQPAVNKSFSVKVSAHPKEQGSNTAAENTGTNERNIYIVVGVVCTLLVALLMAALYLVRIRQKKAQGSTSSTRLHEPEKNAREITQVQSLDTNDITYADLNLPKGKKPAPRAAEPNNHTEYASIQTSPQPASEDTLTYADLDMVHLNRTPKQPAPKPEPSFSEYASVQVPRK

T3: Cynomolgus Monkey SIRPγ (plate-coated extracellular domain)
T3 construct: also called Cyno SIRPγ
T3 extracellular domain: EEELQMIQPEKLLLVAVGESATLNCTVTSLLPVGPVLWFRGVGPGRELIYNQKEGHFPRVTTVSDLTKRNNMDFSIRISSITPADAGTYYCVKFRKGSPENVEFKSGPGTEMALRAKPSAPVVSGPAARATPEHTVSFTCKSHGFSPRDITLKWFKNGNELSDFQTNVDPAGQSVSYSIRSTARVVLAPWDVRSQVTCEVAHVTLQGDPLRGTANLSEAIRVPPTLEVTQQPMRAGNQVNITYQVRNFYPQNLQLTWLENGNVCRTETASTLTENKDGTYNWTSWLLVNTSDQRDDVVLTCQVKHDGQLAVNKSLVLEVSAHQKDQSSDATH

T4: cynomolgus monkey SIRPγ-His monomer protein (cynomolgus monkey, UniProt Q9P1W8 29-359 (human entry), limits assumed)
T4 construct: also called Cyno SIRPγ; Cyno SIRPγ-His
T4 chain: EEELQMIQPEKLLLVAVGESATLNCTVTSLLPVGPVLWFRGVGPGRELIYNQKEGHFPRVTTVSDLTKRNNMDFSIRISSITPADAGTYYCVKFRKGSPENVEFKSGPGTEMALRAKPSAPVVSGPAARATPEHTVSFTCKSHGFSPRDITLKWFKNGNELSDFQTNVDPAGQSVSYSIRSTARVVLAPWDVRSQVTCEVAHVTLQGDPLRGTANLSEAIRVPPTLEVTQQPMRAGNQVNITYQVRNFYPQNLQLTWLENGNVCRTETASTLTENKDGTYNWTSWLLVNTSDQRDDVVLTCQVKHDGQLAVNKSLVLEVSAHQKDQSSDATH


Assays:
[1] = biological target: T1, cynomolgus monkey SIRPγ on CHO cells; experiment: flow cytometry, CHO transfectants, anti-human IgG
Method in brief: (§1)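 Flow cytometry on stable CHO transfectants; antibody titration; fluorescent anti-human IgG detection; MFI per concentration. myc-tagged scFv: crude PPE on SIRP-expressing CHO and parental CHO-K1; fold change <2.0 = non-binder.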

[2] = biological target: T5, human SIRPβ1 on CHO cells (co-transfected with DAP12) (human, UniProt O00241 30-398); experiment: flow cytometry, CHO transfectants, anti-human IgG
T5 construct: whole, on cells; co-transfected with DAP12; also called Human SIRPβ1 CHO
T5 sequence (O00241 30-398): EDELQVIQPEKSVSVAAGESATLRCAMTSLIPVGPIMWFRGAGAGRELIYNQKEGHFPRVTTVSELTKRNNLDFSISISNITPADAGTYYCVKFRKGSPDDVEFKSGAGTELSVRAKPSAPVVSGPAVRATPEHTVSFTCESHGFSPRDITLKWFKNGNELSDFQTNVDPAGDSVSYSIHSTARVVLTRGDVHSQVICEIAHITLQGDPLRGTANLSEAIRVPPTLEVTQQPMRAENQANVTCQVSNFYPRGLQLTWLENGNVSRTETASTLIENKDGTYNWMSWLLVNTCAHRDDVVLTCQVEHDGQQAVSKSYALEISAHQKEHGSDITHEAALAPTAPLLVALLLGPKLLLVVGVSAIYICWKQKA
Method in brief: as §1

[3] = biological target: T6, human SIRPγ on stably transfected CHO cells (human, UniProt Q9P1W8 29-387); experiment: flow cytometry, CHO transfectants, anti-human IgG
T6 construct: also called Human SIRPγ CHO
T6 sequence (Q9P1W8 29-387 limits assumed): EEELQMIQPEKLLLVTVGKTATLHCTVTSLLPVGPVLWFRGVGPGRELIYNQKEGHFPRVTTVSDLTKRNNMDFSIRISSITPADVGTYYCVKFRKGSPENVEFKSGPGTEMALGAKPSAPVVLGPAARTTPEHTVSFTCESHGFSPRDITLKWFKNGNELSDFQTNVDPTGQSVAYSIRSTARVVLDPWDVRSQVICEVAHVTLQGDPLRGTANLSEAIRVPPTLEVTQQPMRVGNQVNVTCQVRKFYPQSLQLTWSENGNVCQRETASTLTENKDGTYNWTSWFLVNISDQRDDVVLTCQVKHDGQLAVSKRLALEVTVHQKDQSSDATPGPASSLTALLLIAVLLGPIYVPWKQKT
Method in brief: as §1

[4] = biological target: T2, cynomolgus monkey SIRPα on CHO cells; experiment: flow cytometry, CHO transfectants, anti-human IgG
Method in brief: as §1

[5] = biological target: T7, extracellular binding domain of human SIRPγ (plate-coated) (human, UniProt Q9P1W8 29-360); experiment: ELISA, coated SIRP ECD (2 µg/mL), anti-human IgG, luminescence
T7 construct: also called hSIRPγ
T7 sequence (Q9P1W8 29-360 limits assumed): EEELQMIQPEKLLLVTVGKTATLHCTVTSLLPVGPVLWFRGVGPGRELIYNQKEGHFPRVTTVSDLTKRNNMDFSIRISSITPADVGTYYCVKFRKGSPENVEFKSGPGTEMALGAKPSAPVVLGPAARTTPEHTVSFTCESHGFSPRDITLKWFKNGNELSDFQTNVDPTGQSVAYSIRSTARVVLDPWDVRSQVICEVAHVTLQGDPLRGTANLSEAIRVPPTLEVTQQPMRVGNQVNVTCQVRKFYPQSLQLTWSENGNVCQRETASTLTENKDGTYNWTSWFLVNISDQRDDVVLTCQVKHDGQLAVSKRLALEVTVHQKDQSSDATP
Method in brief: (§2)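 Plate-coated SIRP extracellular domain (2 μg/mL), blocked, then exposed to purified antibodies in titration, after transient expression in Expi293F cells for 5 days and Protein A purification. Bound antibody is detected with anti-human IgG and a chemiluminescent substrate, and reported as relative luminescence units.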

[6] = biological target: T3, Cynomolgus Monkey SIRPγ (plate-coated …); experiment: as above
Method in brief: as §2

[7] = biological target: T8, human SIRPγ-His monomer protein (human, UniProt Q9P1W8 29-360); experiment: BLI Octet, antibody on AHC, global 1:2 model
T8 construct: also called hSIRPγ
T8 sequence (Q9P1W8 29-360 limits assumed): as above
Experimental: (§3) Antibodies were coated onto anti-human Fc capture (AHC) biosensors. SIRP-His monomer protein or bivalent SIRP protein with mouse Fc at four concentrations (200 nM, 100 nM, 50 nM, 25 nM) were exposed to the biosensor to measure on-rate kinetics of SIRP antibodies binding to SIRP protein. The biosensors were then exposed to wash buffer to measure off-rate kinetics. The resulting kinetic data were analyzed and fitted using a global 1:2 binding model.

[8] = biological target: T4, cynomolgus monkey SIRPγ-His monomer …; experiment: BLI Octet, antibody on AHC, global 1:2 model
Experimental: as §3

[9] = biological target: T9, bivalent human SIRPγ protein with mouse Fc (human, UniProt Q9P1W8 29-360); experiment: BLI Octet, antibody on AHC, global 1:2 model
T9 construct: also called Human SIRPγ-mFc
T9 sequence (Q9P1W8 29-360 limits assumed): as above
Experimental: as §3

[10] = biological target: T7, extracellular binding domain of human …; experiment: competition ELISA, coated SIRPγ ECD, antibody 1 h then 10 µg/mL biotinylated CD47-Fc (blocked ligand), streptavidin-HRP
Experimental: To carry out the competition experiment, the extracellular binding domain of SIRPγ was coated onto a high protein-binding plate and blocked. A titration of each SIRPγ antibody was incubated on the plate for 1 hour. […] Following a wash, streptavidin-HRP was added. The plate was washed again and developed using a chemiluminescent substrate. The plate was read on a plate reader to assess luminescence. […] A known blocker antibody was used as a positive control.

EC50 (read off the curve) [1] [µg/mL] | binding result [2] | EC50 (read off the curve) [3] [µg/mL] | binding result [4] | EC50 (read off the curve) [5] [µg/mL] | EC50 (read off the curve) [6] [µg/mL] | Kd [7] [nM] | Kd [8] [nM] | Kd [9] [nM] | IC50 (read off the curve) [10] [µg/mL] | Binder
~0.7 | no binding (tested: about 20 µg/mL) | ~0.9 | no binding (tested: about 20 µg/mL) | ~0.02 | ~0.03 |  |  |  |  | Antibody 60 (antibody, V domains shown) VH: EVQLLESGGGLVQPGGSLRLSCAASGFTLGSYWMHWVRQAPGKGLEWVSLISWDGGSTYYADSVKGRFTISRDNSKNTLYLQMNSLRAEDTAVYYCAKGPWVGYSGYDLNYYYYGMDVWGQGTTVTVSS VL: DIQMTQSPSSLSASVGDRVTITCRASQDIRRALAWYQQKPGKAPKLLIYAASSLQSGVPSRFSGSGSGTDFTLTISSLQPEDFATYYCLQHNSYPPTFGQGTKLEIK
~0.5 | no binding (tested: about 20 µg/mL) |  | no binding (tested: about 20 µg/mL) | ~0.03 | ~0.06 |  |  |  |  | Antibody 79 (antibody, V domains shown) VH: QVQLVQSGAEVKKPGASVKVSCKASGYTFTSYYMHWVRQAPGQGLEWMGWMNPNSGNTGYAQKFQGRVTMTRDTSTSTVYMELSSLRSEDTAVYYCARDQMYSSYGMDVWGQGTTVTVSS VL: DIQMTQSPSSLSASVGDRVTITCRASESITNWLAWYQQKPGKAPKLLIYKASSLESGVPSRFSGSGSGTDFTLTISSLQPEDFATYYCQQSYGTPYTFGQGTKVEIK
~0.6 | no binding (tested: about 20 µg/mL) | ~0.5 | no binding (tested: about 20 µg/mL) |  |  |  |  |  |  | Antibody 69 (antibody, V domains shown) VH: QVQLVQSGAEVKKPGASVKVSCKASGYTFTSYYMHWVRQAPGQGLEWMGWMNPNSDNTGYAQKFQGRVTMTRDTSTSTVYMELSSLRSEDTAVYYCARVGVGYGYYYYGMDVWGQGTTVTVSS VL: DIQMTQSPSSLSASVGDRVTITCRAGQSIGDYLNWYQQKPGKAPKLLIYAASSLQSGVPSRFSGSGSGTDFTLTISSLQPEDFATYYCQQSYSTPWTFGQGTKVEIK
 | no binding (tested: about 30 µg/mL) |  | no binding (tested: about 30 µg/mL) | ~0.3 | ~0.2 | 297 | 26.2 | 1320 |  | Antibody 89 (antibody, V domains shown) VH: QVQLVQSGAEVKKPGASVKVSCKASGGTFSSYAISWVRQAPGQGLEWMGIINPSSSSTGYAQKFQGRVTMTRDTSTSTVYMELSSLRSEDTAVYYCARAGYYDSSGYYYSPYYGMDVWGQGTTVTVSS VL: EIVMTQSPATLSVSPGERATLSCRASQSISGSYLAWYQQKPGQAPRLLIYGASTRATGIPARFSGSGSGTEFTLTISSLQSEDFAVYYCQQYGSFPFTFGPGTKVDIK
 | no binding (tested: about 30 µg/mL) |  | no binding (tested: about 30 µg/mL) |  |  | 174 | 11.7 | 53.2 | ~0.2 | Antibody 83 (antibody, V domains shown) VH: QVQLVQSGAEVKKPGASVKVSCKASGYSFSDYYMHWVRQAPGQGLEWMGWMSPNSGNTGYAQKFQGRVTMTRDTSTSTVYMELSSLRSEDTAVYYCARQREEYGHYYYGMDVWGQGTMVTVSS VL: EIVMTQSPATLSVSPGERATLSCRASQSLGSTYLAWYQQKPGQAPRLLIYGASTRATGIPARFSGSGSGTEFTLTISSLQSEDFAVYYCQQYYSSPPTFGQGTKVEIK
~0.4 | no binding (tested: about 20 µg/mL) | ~0.6 | no binding (tested: about 20 µg/mL) |  |  |  |  |  |  | Antibody 57 (antibody, V domains shown) VH: QVQLVQSGAEVKKPGASVKVSCKASGYTFTSYYMHWVRQAPGQGLEWMGWINPNSGNAGFAQKFQGRVTMTRDTSTSTVYMELSSLRSEDTAVYYCARGPVYSYGPFDYWGQGTLVTVSS VL: DIQMTQSPSSLSASVGDRVTITCRASQGISTYLAWYQQKPGKAPKLLIYAASTLQSGVPSRFSGSGSGTDFTLTISSLQPEDFATYYCQQSHSAPITFGQGTKVEIK
~0.7 | no binding (tested: about 20 µg/mL) | ~0.2 | no binding (tested: about 20 µg/mL) | ~0.02 | ~0.05 |  |  |  |  | Antibody 80 (antibody, V domains shown) VH: QVQLVQSGAEVKKPGASVKVSCKASGYTFTRYDINWVRQAPGQGLEWMGWMNPNSGNTGYAQKLQGRVTMTRDTSTSTVYMELSSLRSEDTAVYYCARERVGYCSSTSCLHPLDYWGQGTLVTVSS VL: DIQMTQSPSSLSASVGDRVTITCRASQGIRNDLGWYQQKPGKAPKLLIYSASNLQSGVPSRFSGSGSGTDFTLTISSLQPEDFATYYCQQSYDVPLTFGGGTKVEIK
~0.6 | no binding (tested: about 30 µg/mL) | ~0.4 | no binding (tested: about 30 µg/mL) |  |  | 70.3 | 211 | 21.5 |  | Antibody 96 (antibody, V domains shown) VH: QVQLVQSGAEVKKPGASVKVSCKASGYTFTRYDINWVRQAPGQGLEWMGWMNPNSGNTGYAQKLQGRVTMTRDTSTSTVYMELSSLRSEDTAVYYCARERVGYCSSTSCLHPLDYWGQGTLVTVSS VL: DIQMTQSPSSLSASVGDRVTITCRASQGIRNDLGWYQQKPGKAPKLLIYSASNLQSGVPSRFSGSGSGTDFTLTISSLQPEDFATYYCQQSYDVPLTFGGGTKVEIK
~0.7 | no binding (tested: about 20 µg/mL) |  | no binding (tested: about 20 µg/mL) | ~0.01 | ~0.03 |  |  |  |  | Antibody 82 (antibody, V domains shown) VH: QVQLVQSGAEVKKPGASVKVSCKASGHTFNNNYIHWVRQAPGQGLEWMGIINPSGGSTSYAQKFQGRVTMTRDTSTSTVYMELSSLRSEDTAVYYCARQIQDYGYYYYGMDVWGQGTTVTVSS VL: EIVMTQSPATLSVSPGERATLSCRASQSVSKYLAWYQQKPGQAPRLLIYAISARAAGIPARFSGSGSGTEFTLTISSLQSEDFAVYYCQQYYSSPPTFGQGTKVEIK

— US20240400677A1 (ELECTRA THERAPEUTICS, published 2024)
